Test results as given in paper PMC3290565, “Pentachlorophenol Induction of the Pseudomonas aeruginosa mexAB-oprM Efflux Operon: Involvement of Repressors NalC and MexR and the Antirepressor ArmR”.

Tests used:
NalC-His [1] = biological target: T1, NalC-His (Pseudomonas aeruginosa K767, UniProt Q9HXS0 1-213); experiment: EMSA; 300-2000 ng NalC-His, 40 ng DNA; details: protein: recombinant; tags: C-terminal His (pET23a); chain copies: 2; blunt
NalC-His [2] = biological target: T1, NalC-His; experiment: EMSA; data not shown; details: protein: recombinant; tags: C-terminal His (pET23a); chain copies: 2

| Binder | binding result (NalC-His [1]) | binding result (NalC-His [2]) |
| --- | --- | --- |
| NalC-1 (endpoints III) (dsDNA) DNA 1: TGGTCATTTAAGAACTGTATCGTACAGTACTGTTTTGGCAA DNA 2: TTGCCAAAACAGTACTGTACGATACAGTTCTTAAATGACCA | binds |  |
| NalC-2 (endpoints IV) (dsDNA) DNA 1: TTGGCAAGCACTTCCGCTCATTCCTCCGCCTTGCCTCCCGC DNA 2: GCGGGAGGCAAGGCGGAGGAATGAGCGGAAGTGCTTGCCAA | no binding |  |
| 21-bp inverted repeat only (dsDNA) DNA 1: AGAACTGTATCGTACAGTACT DNA 2: AGTACTGTACGATACAGTTCT |  | no binding |
